From PMC9291269 come the findings set out here.

A word on the stoichiometry N: it is the number of molecules, sites or subunits per partner or assembly.

Read-outs that look alike come from different tables or passages of the source.

In experiment [1] the target is SAA1 secreted by BEAS-2B cells (lipid-free, in culture supernatant) (human (endogenous in BEAS-2B)). Put plainly: immunoblot of HDL-depleted cell culture supernatants.
Experiment [2] has the same target. The description is as above. This is another data set of the same source.
Experiment [3] addresses T1, recombinant human serum amyloid A1 (rSAA1) (human), P0DJI8.
T1 chain: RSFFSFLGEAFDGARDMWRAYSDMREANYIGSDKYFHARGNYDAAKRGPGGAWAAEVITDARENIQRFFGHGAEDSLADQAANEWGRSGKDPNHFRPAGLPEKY
In words: immunoblot of cell culture supernatants. Conditions: remark: other sources report otherwise. Background: A western blot detects proteins with antibodies after separation by electrophoresis.

Experiment [4] has as its target T1, recombinant human serum amyloid A1 …. Put plainly: immunoblot of cell culture supernatants. Conditions: remark: other sources report otherwise.

Consider “SAA1 secreted by BEAS-2B cells (lipid-free, in culture supernatant) (natural protein)”, for which the stoichiometry N in experiment [1] was determined as 6; in experiment [2], 2.

B1: recombinant human serum amyloid A1 (rSAA1), P0DJI8 19-122 (natural protein)
chain: T1 chain
Take B1: the stoichiometry N in experiment [3] amounted to 2; in experiment [4] it was 6.
